From publication PMC4446437 (Nucleic Acids Research, 2015) come the findings set out here.

This assay has as its target T1, His-tagged Set7 (human, UniProt Q8WTS6 1-366).
T1 sequence (looked up): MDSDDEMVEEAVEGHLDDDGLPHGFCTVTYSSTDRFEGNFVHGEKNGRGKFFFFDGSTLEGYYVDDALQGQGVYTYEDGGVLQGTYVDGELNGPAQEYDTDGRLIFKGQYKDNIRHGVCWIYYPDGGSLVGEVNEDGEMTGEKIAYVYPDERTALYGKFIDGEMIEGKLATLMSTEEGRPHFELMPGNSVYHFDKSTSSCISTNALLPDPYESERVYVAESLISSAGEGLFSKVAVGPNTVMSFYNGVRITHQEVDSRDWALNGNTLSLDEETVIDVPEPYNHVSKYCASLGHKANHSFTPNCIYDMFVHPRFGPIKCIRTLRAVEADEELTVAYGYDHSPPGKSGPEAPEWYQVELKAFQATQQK
In words: pull-down.

B1: GST-HIF-1α-(amino acids 576–785) (domain or fragment, human, UniProt Q16665 576-785, looked up)
chain: SFDQLSPLESSSASPESASPQSTVTVFQQTQIQEPTANATTTTATTDELKTVTKDRMEDIKILIASPSPTHIHKETTSATSSPYRDTQSRTASPNRAGKGVIEQTEKSHPRSPNVLSVALSQRTTVPEEELNPKILALQNAQRKRKMEHDGSLFQAVGIGTLLQQPDDHAATTSLSWKRVKGCKSSEQNGMEQKTIILIPSDLACRLLGQ
As to B1, the binding result is reported as “binds”.
